From the supplement of paper PMC12764529
± gives the half width of the 95% confidence interval.

How the values were obtained:
[1] = folding stability dG unfold from trypsin proteolysis; higher = more stable
Method in brief: (§1)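 Digests were run with trypsin and chymotrypsin at 11 concentrations in threefold dilutions, plus a no-protease condition, on designed mini-proteins in a PA-tagged cDNA display construct. The mini-proteins were under 80 residues, had no cysteine, and were kept only when AlphaFold2 dimer inter-PAE was above 15. After sequencing, Bayesian fitting of the counts gave K50, from which unfolding free energy was derived against a sequence-predicted unfolded-state K50 and a shared folded-state K50, per protease or combined.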

[2] = folding stability dG unfold (combined trypsin and chymotrypsin); higher = more stable
Method in brief: as §1

[3] = folding stability dG unfold from chymotrypsin proteolysis; higher = more stable
Method in brief: as §1

Sequence	folding stability dG unfold [1]	folding stability dG unfold [2]	folding stability dG unfold [3]
SAGGSAGGGGTLTIEVDAPAGAKKINIELPGGTVSNLSYDPSTGKATIPFDTPEQAKAVEALVGSAGGSAGG [r6_745_TrMRF]	-0.493 ± 0.097 kcal/mol	-0.086 ± 0.058 kcal/mol	0.098 ± 0.088 kcal/mol
GSNAVEVTLEVEVTITDPKTPDNKTTTVTIPLTVKLPPSVTSLEELEALARERAEAVAAELGGTVVTVTPVS [r1_300_JUSTAS]	2.61 ± 0.098 kcal/mol	2.49 ± 0.089 kcal/mol	2.42 ± 0.067 kcal/mol
SAGSSSMVLLKVTITFTDPNGTTTTLTYTFDDPSNPEKARAAVEALAAEIKAATGASWTITMTTVPVPGSAG [r14_146_JUSTAS]	4.59 ± 0.16 kcal/mol	5.17 ± 0.12 kcal/mol	5.32 ± 0.066 kcal/mol
SAGGSAGGSMETITLPEDVKVEVVEVEPGSVIEVEFEDGLVARVRIDPENLEKVEIEVFPKEESAGGSAGGS [r12_648_TrROS_Hall]	-0.0965 ± 0.16 kcal/mol	0.694 ± 0.17 kcal/mol	0.826 ± 0.16 kcal/mol
SAGGSAGGSDWRPIKIWYPLDDLEQIKEKIREDGITVEINVQRDPNGKLYAPVTIWVPKGAKPSAGGSAGGS [r12_653_TrROS]	0.998 ± 0.039 kcal/mol	1.32 ± 0.15 kcal/mol	1.57 ± 0.032 kcal/mol
SAGGSAGGSAPVLVLETESGVKFETLSLGPGPGALALIVTPDKPALALINLDDPNNIKILASAGGSAGGSAG [r3_450_TrMRF]	1.55 ± 0.045 kcal/mol	1.18 ± 0.1 kcal/mol	0.799 ± 0.11 kcal/mol
SAGGSMEVKVEVVKDEETKEYYVKVEIRDPKTKKTITLEYKVKEEDKEEALKKAKELAEELAKKGISAGGSA [r2_221_TrROS_Hall]	3.27 ± 0.14 kcal/mol	3.48 ± 0.1 kcal/mol	3.64 ± 0.077 kcal/mol
SAPDPEQRKKNREQQEKNERMIPIQIHVYDKDGKWKPIGPVWFKDPDVPIDDLVPTFHDEGFDYVSISISAG [r14_318_TrROS]	0.153 ± 0.15 kcal/mol	0.299 ± 0.21 kcal/mol	0.209 ± 0.23 kcal/mol
SAGGSAGGDVVIIPEPSEEDKMIFTIVADGEEAPVVLTVEADNLADVVDFLKEHGLAAGHPDDGSAGGSAGG [r6_40_TrMRF]	0.713 ± 0.065 kcal/mol	0.679 ± 0.11 kcal/mol	0.637 ± 0.052 kcal/mol
SAGGGTTITLSFADGTTKTLTLPGLTEVVEEPGRVVVRADVPERRVVVTFEPATGTITVEEFAPEEPVSAGG [r13_392_JUSTAS]	0.818 ± 0.1 kcal/mol	1.86 ± 0.25 kcal/mol	2.27 ± 0.057 kcal/mol
SFRIMASYDPDYGTITVYVQFQDPDNGEPIPAEEIAKEIAEQFPGAKIDDIEPNPDGWFKIEIKVPPGAFSA [r9_87_TrROS]	2.19 ± 0.077 kcal/mol	2.46 ± 0.19 kcal/mol	2.55 ± 0.044 kcal/mol
SAGGSAGGSAGGMLYVKVKTEDGEELVLEVEGMTEDEIREELAKAGFKIEEIEVYEVEPSAGGSAGGSAGGS [r10_572_TrROS_Hall]	2.36 ± 0.093 kcal/mol	2.71 ± 0.06 kcal/mol	2.83 ± 0.018 kcal/mol
SAGGSAGGSMIVVPESVSPEEAEATARQVAQELGISPDTPLEVEIKEVKTGENSVYEIRVTLRSAGGSAGGS [r12_252_JUSTAS]	0.097 ± 0.056 kcal/mol	0.199 ± 0.092 kcal/mol	0.19 ± 0.13 kcal/mol
SMKELVKRIAERFPNFKVKIKPEKTGGKKYRTVRIENPDSGRDMEIVFTKNGDIQIEMPNGRRIPLEDILSA [r9_1176_TrROS]	1.46 ± 0.018 kcal/mol	1.36 ± 0.059 kcal/mol	1.1 ± 0.077 kcal/mol
SMKPGETVRVTFKTKDGSKIEIEFKNGKPVRITVYNKNGEKVKEIEVTLDELKELAEKLGIEEIVEVEKVSA [r9_1107_TrROS_Hall]	2.76 ± 0.19 kcal/mol	3.26 ± 0.35 kcal/mol	3.44 ± 0.077 kcal/mol
SAGGSAGGSAGNPNTPVIVKITLPGGKEITLEGTVSEAEEIVKKLEEEGHPFVEVEVYNRSAGGSAGGSAGG [r11_946_JUSTAS]	0.422 ± 0.041 kcal/mol	0.0762 ± 0.14 kcal/mol	-0.849 ± 0.3 kcal/mol
SAGGGLANLSLEEIRQLLLEKFPELPVEVKVTPVDEKDGVVLVTVRPPLPDGSTVESEEELPLEPGLSAGGS [r16_564_JUSTAS]	0.661 ± 0.025 kcal/mol	0.229 ± 0.074 kcal/mol	-1.28 ± 0.41 kcal/mol
SAGGAEVDPETKVVHIRIRARSAEELLAAIEALPADEVIIEVYNEETGKTERIRLSREELRKLLEEASAGGS [r16_797_TrROS_Hall]	1.92 ± 0.021 kcal/mol	2.54 ± 0.031 kcal/mol	2.82 ± 0.018 kcal/mol
SAGGSAGGSMKTKTIEIEIDGKKVRITIDSDGNITIEVPSEEVKEALKKLLPPGVKITKIEPVSAGGSAGGS [r12_9_TrROS_Hall]	2.15 ± 0.13 kcal/mol	1.94 ± 0.21 kcal/mol	1.61 ± 0.1 kcal/mol
SAGGSAGGSAKYITIFFWGSVEEALKSIPIPPGFKVEIDNIHRNPDGWMWVMITIEIPPNMKSAGGSAGGSA [r18_510_TrROS]	2.68 ± 0.088 kcal/mol	4.28 ± 0.22 kcal/mol	4.36 ± 0.12 kcal/mol
SAKITFIAPGGKPIVIDIDPNYEVIEVIEFPELGVVLILLRNPETGELYAILITPPDYRPTYIELIPLDSAG [r14_311_TrMRF]	3.43 ± 0.096 kcal/mol	4.17 ± 0.2 kcal/mol	4.29 ± 0.15 kcal/mol
